Measurements published in paper PMC2613339.

Target: protein phosphatase-1 alpha catalytic subunit (recombinant PP1α) (UniProt P62139)
Chain of UniProt P62139 (P62139 whole entry): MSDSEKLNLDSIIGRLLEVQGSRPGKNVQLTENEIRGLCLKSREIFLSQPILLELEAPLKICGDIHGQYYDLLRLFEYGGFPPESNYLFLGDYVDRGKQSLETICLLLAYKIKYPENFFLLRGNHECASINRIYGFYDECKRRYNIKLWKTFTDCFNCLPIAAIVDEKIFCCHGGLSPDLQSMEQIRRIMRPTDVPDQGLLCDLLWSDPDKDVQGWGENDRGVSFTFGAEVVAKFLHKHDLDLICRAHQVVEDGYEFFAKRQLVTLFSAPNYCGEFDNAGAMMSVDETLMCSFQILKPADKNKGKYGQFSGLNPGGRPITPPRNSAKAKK

fold increase in IC50 of inhibition of PP1 activity, against Inh3(1–64): 3.5 fold
Binder: MAEAGAGLSETVTETTVTVTTEPENRSLTIKLRKRKPEKKVEWTSDT (domain or fragment) [Inh3(1–47)]
